Reference: publication PMC2806190 (Cell, 2009)

Experiments:
[1] = target: Sec39 (residues 1–709) (S. cerevisiae) (UniProt Q12745)
[2] = target: Dsl1 (residues 1–754) (S. cerevisiae) (UniProt P53847)
[3] = target: T1, Sec39 (residues 1–709) (S. cerevisiae, UniProt Q12745 1-709); experiment: co-purification
T1 sequence (looked up): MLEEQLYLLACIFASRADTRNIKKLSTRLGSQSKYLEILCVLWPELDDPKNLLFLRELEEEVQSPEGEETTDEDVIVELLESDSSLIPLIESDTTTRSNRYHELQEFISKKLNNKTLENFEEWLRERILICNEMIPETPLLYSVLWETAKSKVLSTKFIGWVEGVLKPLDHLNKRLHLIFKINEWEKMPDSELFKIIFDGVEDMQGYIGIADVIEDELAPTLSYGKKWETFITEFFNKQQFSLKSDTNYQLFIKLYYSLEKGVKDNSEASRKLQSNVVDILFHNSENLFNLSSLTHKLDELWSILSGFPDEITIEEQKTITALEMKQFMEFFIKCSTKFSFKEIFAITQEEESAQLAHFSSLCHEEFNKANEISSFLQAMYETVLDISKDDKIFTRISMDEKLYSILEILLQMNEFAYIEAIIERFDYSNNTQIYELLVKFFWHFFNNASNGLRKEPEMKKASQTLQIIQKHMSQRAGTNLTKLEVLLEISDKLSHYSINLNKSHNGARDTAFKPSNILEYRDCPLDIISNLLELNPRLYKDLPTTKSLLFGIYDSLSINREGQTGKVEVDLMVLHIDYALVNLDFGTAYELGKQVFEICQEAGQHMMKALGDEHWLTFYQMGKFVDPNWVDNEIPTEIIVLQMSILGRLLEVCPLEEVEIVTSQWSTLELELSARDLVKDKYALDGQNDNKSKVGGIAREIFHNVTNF

[4] = target: T2, His-tagged Sec39 (S. cerevisiae, UniProt Q12745 1-709); experiment: co-purification
T2 sequence (looked up): T1 sequence (looked up)

[5] = target: T3, Sec39 residues 1–392 (S. cerevisiae, UniProt Q12745 1-392); experiment: SEC
T3 sequence (looked up): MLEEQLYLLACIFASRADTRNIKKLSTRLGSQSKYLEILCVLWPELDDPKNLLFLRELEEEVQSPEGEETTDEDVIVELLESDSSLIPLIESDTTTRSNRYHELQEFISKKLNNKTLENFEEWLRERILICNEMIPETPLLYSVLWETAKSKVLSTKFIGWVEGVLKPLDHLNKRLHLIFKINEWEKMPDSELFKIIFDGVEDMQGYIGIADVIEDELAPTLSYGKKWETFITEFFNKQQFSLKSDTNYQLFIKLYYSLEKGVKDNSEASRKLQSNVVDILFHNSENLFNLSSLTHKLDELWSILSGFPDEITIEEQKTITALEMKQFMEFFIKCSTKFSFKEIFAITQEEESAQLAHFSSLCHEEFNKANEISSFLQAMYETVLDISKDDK

[6] = target: T1, Sec39 (residues 1–709); experiment: SEC

Which Kd [1] does the source give for “Dsl1 (residues 1–754) (from UniProt P53847 1-754) (natural protein)” here?
Its Kd is 10 nM.

With “Tip20 (residues 1–701) (from UniProt P33891 1-701) (natural protein)” as the molecule, how does the Kd [2] read?
The Kd was 100 nM.

B1: Use1 cytoplasmic domain (residues 1–212), TF tag removed (domain or fragment, S. cerevisiae, UniProt P53146 1-212, looked up)
chain: MAETSNDPFLSYVLSSKQLTNLNRLRRKAVTKQLGSSDDNKVSEEFLRYQHTYQREAFEYLQTKHDAHKIMESQYEQYQSSSKTRRYSIDLDSVDAVDTESQTEYPNEEFIDRNEDSEAVMELRKRLLGKGQNKGLGYETTKSVDRQIEDQDTLQQDLIQDMSKLVGSLKQGAVAFQSALDEDKQVLGAAEIGIQVASQGLMDVSGKLRKYD
Does B1 bind [3]?
Result: binds

Does B1 bind [4]?
Result: binds

B2: TF-Use1 (residues 1–212 fused to trigger factor) (domain or fragment, S. cerevisiae, UniProt P53146 1-212, looked up)
chain: B1 chain
Does B2 bind [5]?
Result: binds

Does MAETSNDPFLSYVLSSKQLTNLNRLRRKAVTKQLG (peptide, UniProt P53146 1-35, looked up) [N-terminal peptide of Use1 (residues 1–35)] bind [6]?
Result: binds
